Data from patent publication US7011817B2, “Hydrophilic cyanine dyes” (Mallinckrodt Inc., priority 2000, dated 2006).

Experiments:
[1] = system: Pancreatic Ductal Adenocarcinoma (DSL 6A); test: In vivo fluorescence imaging of DSL 6A tumors in rats; parameters: species or system male Lewis rats
From the text: (§1) A non-invasive in vivo fluorescence imaging apparatus was employed to assess the efficacy of contrast agents developed for tumor detection in animal models. A LaserMax Inc. laser diode of nominal wavelength 780 nm and nominal power of 40 mW was used. The detector was a Princeton Instruments model RTE/CCD-1317-K/2 CCD camera with a Rodenstock 10 mm F2 lens (stock #542.032.002.20) attached. An 830 nm interference […] (CVI Laser Corp., part # F10-830-4-2) was mounted in front of the CCD input lens such that only emitted fluorescent light from the contrast agent was imaged. Typically, an image of the animal was taken pre-injection of contrast agent. This image was subsequently subtracted (pixel by pixel) from the post injection images. However, the background subtraction was […] done once the animal had been removed from the sample area and returned at a later time for images taken several hours post injection.
DSL 6A tumors were induced in male Lewis rats in the left flank area by the introduction of material from a solid (donor) implant, and the tumors were palpable in approximately 14 days. The animals were anesthetized with xylazine:ketamine:acepromazine, 1.5:1.5:0.5 at 0.8 mL/kg via intramuscular injection. The area of the tumor (left flank) was shaved to expose the tumor and the surrounding surface area. […]

[2] = system: Prostatic Carcinoma (R3327-H); test: In vivo fluorescence imaging of prostatic carcinoma R3327-H in rats; parameters: species or system male Copenhagen rats
From the text: as §1
The imaging apparatus and the procedure used are described as in Example 12. Prostate tumors (Dunning R3327-H) were induced in young male Copenhagen rats in the left flank area from a solid implant. These tumors grow very slowly and palpable masses were present 4-5 months post implant. FIGS. 7C-D are images of a rat with an induced prostatic carcinoma tumor (R3327-H) imaged at two minutes (FIG. 7C) and 30 minutes (FIG. 7D) post injection.

[3] = system: Rat pancreatic acinar carcinoma expressing the SST-2 receptor (CA20948); test: In vivo fluorescence imaging of pancreatic acinar carcinoma CA20948 in rats
From the text: as §1
The imaging apparatus and the procedure used are described in Example 12. Rat pancreatic acinar carcinoma expressing the SST-2 receptor (CA20948) was induced by solid implant technique in the left flank area, and palpable masses were detected nine days post implant. The images obtained at 2 and 30 minutes post injection are shown in FIGS. 7E-F. FIGS. 7E-F are images of a rat with an induced pancreatic acinar carcinoma (CA20948) expressing the SST-2 receptor imaged at two minutes (FIG. 7E) and 30 minutes (FIG. 7F) post injection.
The imaging apparatus and the procedure used are described in Example 12, except that each animal received 500 μl of a 1.0 mg/mL solution of Cytate 1 solution of 25% dimethylsulfoxide in water.
Rat pancreatic acinar carcinoma expressing the SST-2 receptor (CA20948) were induced by solid implant technique in the left flank area, and palpable masses were detected 24 days post implant. Images were obtained at various times post injection.
Cytate 1 was evaluated in the CA20948 Lewis rat model. […] At 27 hours post injection, the animal was again imaged (FIG. 9B).

[4] = Imaging of individual organs removed from CA20948 tumor-bearing rat; assay type: in vivo; conditions: about 24 hours post administration
Experimental: Individual organs were removed at about 24 hours post Cytate 1 administration and imaged.

[5] = Monitoring of the blood clearance profile of peptide-dye conjugates; assay type: in vivo, Sprague-Dawley or Fischer 344 rats; conditions: rat ear; monitored at 830 nm after excitation at 780 nm
From the text: A laser of appropriate wavelength for excitation of the dye chromophore was directed into one end of a fiber optic bundle and the other end was positioned a few millimeters from the ear of a rat. A second fiber optic bundle was also positioned near the same ear to detect the emitted fluorescent light and the other end was directed into the optics and electronics for data collection. An interference filter (IF) in the collection optics train was used to select emitted fluorescent light of the appropriate wavelength for the dye chromophore.
Sprague-Dawley or Fischer 344 rats were used in these studies. The animals were anesthetized with urethane administered via intraperitoneal injection at a dose of 1.35 g/kg body weight. After the animals had achieved the desired plane of anesthesia, a 21 gauge butterfly with 12″ tubing was placed in the lateral tail vein of each animal and flushed with heparinized saline. The animals were placed on a heating pad and kept warm throughout the entire study. The lobe of the left ear was affixed to a glass microscope slide to reduce movement and vibration.
Incident laser light delivered from the fiber optic was centered on the affixed ear. Data acquisition was then initiated, and a background reading of fluorescence was obtained prior to administration of the test agent. For Cytates 1 or 2, the peptide-dye conjugate was administered to the animal through a bolus injection, typically 0.5 to 2.0 mL, in the lateral tail vein. This procedure was repeated with several dye-peptide conjugates in normal and tumor-bearing rats. Representative profiles as a method to monitor blood clearance of the peptide-dye conjugate in normal and tumor-bearing animals are shown in FIGS. 12 to 16. The data were analyzed using a standard sigma plot software program for a one-compartment model.

SMILES	dye intensity in the tumor ([1]; 30 minutes post-ICG injection, DSL 6A tumor, 500 μL of 0.42 mg/mL in water, tail vein)	perfusion of the agent into the tumor ([1]; DSL 6/A (pancreatic) tumor line)	dye intensity in the tumor ([2]; 30 minutes post-ICG injection, R3327-H tumor)	perfusion of the agent into the tumor ([2]; Dunning R3327H (prostate) tumor line)	dye intensity in the tumor ([3]; 30 minutes post-ICG injection, CA20948 tumor)	dye fluorescence in the tumor at 45 minutes ([3]; 45 minutes post injection, CA20948 tumor)	perfusion of the agent into the tumor ([3]; CA20948 (pancreatic) tumor line)	organ uptake: adrenals [4]	organ uptake: heart [4]	organ uptake: liver [4]	organ uptake: muscle [4]	organ uptake: pancreas [4]	organ uptake: spleen [4]	organ uptake: tumor tissue [4]	blood fluorescence signal after bolus injection (rise) [5]	blood fluorescence signal after the peak (clearance) [5]
CC1(C)C(/C=C/C=C/C=C/C=C2\N(CCCCS(=O)(=O)O)c3ccc4ccccc4c3C2(C)C)=[N+](CCCCS(=O)(=O)[O-])c2ccc3ccccc3c21 [ICG, indocyanine green]	considerably diminished	slow perfusion of the agent over time into the tumor	considerably diminished	slow perfusion of the agent over time into the tumor	considerably diminished and almost absent	mostly cleared	only a slight but transient perfusion that was absent after only 30 minutes post injection	–	–	–	–	–	–	–	–	–
C[C@@H](O)[C@H](NC(=O)[C@@H]1CSSC[C@H](NC(=O)[C@@H](Cc2ccccc2)NC(=O)CC[N+]2=C(/C=C/C=C/C=C/C=C3/N(CCC(=O)O)c4ccc5ccccc5c4C3(C)C)C(C)(C)c3c2ccc2ccccc32)C(=O)N[C@@H](Cc2ccc(O)cc2)C(=O)N[C@H](Cc2c[nH]c3ccccc23)C(=O)N[C@@H](CCCCN)C(=O)N[C@@H]([C@@H](C)O)C(=O)N1)C(=O)O [Cytate 1, monoOctreotate-Bisethylcarboxymethylindocyanine dye]	–	–	–	–	–	–	–	high uptake	significantly lower uptake	significantly lower uptake	significantly lower uptake	high uptake	significantly lower uptake	high uptake	rapidly increased to a peak value	decayed as a function of time
C[C@@H](O)[C@H](NC(=O)[C@@H]1CSSC[C@H](NC(=O)[C@@H](Cc2ccccc2)NC(=O)CCN2C(=CC=CC=CC=CC3=[N+](CCC(=O)N[C@H](Cc4ccccc4)C(=O)N[C@H]4CSSC[C@@H](C(=O)N[C@H](C(=O)O)[C@@H](C)O)NC(=O)[C@H]([C@@H](C)O)NC(=O)[C@H](CCCCN)NC(=O)[C@@H](Cc5c[nH]c6ccccc56)NC(=O)[C@H](Cc5ccc(O)cc5)NC4=O)c4ccc5ccccc5c4C3(C)C)C(C)(C)c3c2ccc2ccccc32)C(=O)N[C@@H](Cc2ccc(O)cc2)C(=O)N[C@H](Cc2c[nH]c3ccccc23)C(=O)N[C@@H](CCCCN)C(=O)N[C@@H]([C@@H](C)O)C(=O)N1)C(=O)O [Cytate 2, bisOctreotate-Bisethylcarboxymethylindocyanine dye]	–	–	–	–	–	–	–	–	–	–	–	–	–	–	rapidly increased to a peak value	decayed as a function of time
